# Experimental data reported in the supplement of paper PMC12764529.
# ± gives the half width of the 95% confidence interval.
# Tests used:
# [1] = folding stability dG unfold (combined trypsin and chymotrypsin); higher = more stable
# How it was run: (§1)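 Unfolding free energy was derived, per protease or combined, by relating Bayesian-fitted K50 values from sequencing counts to a sequence-predicted unfolded-state K50 and a shared folded-state K50. The underlying digests exposed cysteine-free mini-proteins under 80 residues, in a PA-tagged cDNA display construct, to trypsin and chymotrypsin at 11 threefold-diluted concentrations and to a no-protease condition. A filter kept only designs with AlphaFold2 dimer inter-PAE above 15.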
# [2] = folding stability dG unfold from trypsin proteolysis; higher = more stable
# How it was run: as §1
# [3] = folding stability dG unfold from chymotrypsin proteolysis; higher = more stable
# How it was run: as §1
sequence,measurement,setting,value
SEINFKPVKVDKNGNFYVENETKPGLVEKLIEAIKELFPGVEITEIKEIPEPPKIEIKAKHPSGKEFTFGSA [r9_1164_TrMRF],folding stability dG unfold,[1],0.825 ± 0.11 kcal/mol
same,folding stability dG unfold,[2],0.927 ± 0.074 kcal/mol
same,folding stability dG unfold,[3],0.789 ± 0.11 kcal/mol
SEKLTVTLTLTVVTTETRVTYDKETGELTVETRTEVRTLTLTVTADSEEEAKRAVQELLDALEKNPELLSSA [r9_77_TrROS_Hall],folding stability dG unfold,[1],4.66 ± 0.15 kcal/mol
same,folding stability dG unfold,[2],3.8 ± 0.14 kcal/mol
same,folding stability dG unfold,[3],4.94 ± 0.13 kcal/mol
SEKLVIFVPPNMTVEEIVALAKKYPDKEIVIVMPPNMSEEQKERILKALRDAGLPEGVKVTIVEVEPEDLSA [r9_670_TrROS_Hall],folding stability dG unfold,[1],3.85 ± 0.19 kcal/mol
same,folding stability dG unfold,[2],3.73 ± 0.095 kcal/mol
same,folding stability dG unfold,[3],3.81 ± 0.16 kcal/mol
SEKRMEVEIKIPITMVVPKEMFEPDPDNGRYRFPDNGKPIRPNQVHPMPIEIKGPMPPGDAQKLLKDLLKSA [r9_165_TrROS],folding stability dG unfold,[1],-0.203 ± 0.16 kcal/mol
same,folding stability dG unfold,[2],-0.347 ± 0.1 kcal/mol
same,folding stability dG unfold,[3],-0.119 ± 0.11 kcal/mol
SELAEEAAKRAREAFAEEHPGWDVLSVEVEVEKDPNNDVVTVTVKLTLRRESPEPREEVLEEEVTLTFPLKS [r1_181_JUSTAS],folding stability dG unfold,[1],2.91 ± 0.067 kcal/mol
same,folding stability dG unfold,[2],2.14 ± 0.05 kcal/mol
same,folding stability dG unfold,[3],3.24 ± 0.043 kcal/mol
SETVTVTVTVTVTLYRRRPDGKWVPIAELTVTVTRTVEKEDEEEARRAVREEVEDELRKLAEELGVEIEPSA [r9_356_TrROS_Hall],folding stability dG unfold,[1],5.6 ± 0.15 kcal/mol
same,folding stability dG unfold,[2],3.94 ± 0.095 kcal/mol
same,folding stability dG unfold,[3],5.79 ± 0.12 kcal/mol
SEVVLEVKVEVRVKRNENGELEVEVKVEVKLVELEPPEPRIELSEEEREKLKEEAEKLGLELTDEELEALSA [r9_487_TrROS_Hall],folding stability dG unfold,[1],1.75 ± 0.2 kcal/mol
same,folding stability dG unfold,[2],1.9 ± 0.13 kcal/mol
same,folding stability dG unfold,[3],1.87 ± 0.15 kcal/mol
SEWVKVKVEIKMPFYNGNKPMPMSIEVEYEVPPNDPGMTPEDLPPEELAKEAIEKAYDYMRKLGLPPDMFSA [r9_516_TrROS],folding stability dG unfold,[1],2.74 ± 0.39 kcal/mol
same,folding stability dG unfold,[2],2.21 ± 0.19 kcal/mol
same,folding stability dG unfold,[3],2.97 ± 0.12 kcal/mol
SEWVSFMFPFKFEPDDGKIRIKIKMKAPDGEPLGEHEHPVRRDGDKVEVMQMITFPLPKGAQLDKIEIEPSA [r9_292_TrROS],folding stability dG unfold,[1],0.922 ± 0.24 kcal/mol
same,folding stability dG unfold,[2],0.778 ± 0.26 kcal/mol
same,folding stability dG unfold,[3],1.11 ± 0.34 kcal/mol
SFFVEFGIEHNPENNYIHINFRIYEPDPNGQWRPSSSIPITIPIKIPPPPVPKIEVPEGAKDPEDAADALSA [r9_888_TrROS],folding stability dG unfold,[1],3.75 ± 0.68 kcal/mol
same,folding stability dG unfold,[2],2.92 ± 0.2 kcal/mol
same,folding stability dG unfold,[3],4.43 ± 0.3 kcal/mol
SFLSPGDKFKFPNGNNYRIENFDISYDPGNNNPMIEIELVPLPPPKPEDENKKDPDGKTKTENKYKYKGPSA [r9_914_TrROS],folding stability dG unfold,[1],0.968 ± 0.45 kcal/mol
same,folding stability dG unfold,[2],0.61 ± 0.28 kcal/mol
same,folding stability dG unfold,[3],0.879 ± 0.5 kcal/mol
SGGMEKTENGNVRPVPLPTTVVKETPPEVSPEEAKERVEKELKEKGYKNVKVTTSYDPSTNLVTITVTVESA [r9_1124_JUSTAS],folding stability dG unfold,[1],0.564 ± 0.09 kcal/mol
same,folding stability dG unfold,[2],0.447 ± 0.071 kcal/mol
same,folding stability dG unfold,[3],0.624 ± 0.076 kcal/mol
SGIGEMSPEEIAKRLAEELGLSGIEVSVSTEGNTLTIPVKAKDPVKNEEITITITITPENGGKIKITTAGSA [r9_1042_JUSTAS],folding stability dG unfold,[1],0.444 ± 0.21 kcal/mol
same,folding stability dG unfold,[2],0.397 ± 0.12 kcal/mol
same,folding stability dG unfold,[3],0.299 ± 0.057 kcal/mol
SGITPEQIEELAREIADLFPDVEIEIYPGLEPSIFDGPGAVAVIEREEGRGYITIYFPETGEPLVIEVPDSA [r9_1062_TrMRF],folding stability dG unfold,[1],1.37 ± 0.2 kcal/mol
same,folding stability dG unfold,[2],1.5 ± 0.079 kcal/mol
same,folding stability dG unfold,[3],1.3 ± 0.033 kcal/mol
SGKKIEIVKKILEELGIPIVKIEEVTPDRIVVEVEEGRRISIAIKPDDPDVVLIDPKPTEDGGWSSDLPDSA [r9_809_TrMRF],folding stability dG unfold,[1],1.06 ± 0.12 kcal/mol
same,folding stability dG unfold,[2],1.26 ± 0.038 kcal/mol
same,folding stability dG unfold,[3],0.939 ± 0.042 kcal/mol
SGMEQKVEVLRVGAPGEEAVTRFTFKFEDKEFTLEASARLPDGSLVLLDFHVYRDPEGTFRVDVVVYPGFSA [r9_255_TrMRF],folding stability dG unfold,[1],2.93 ± 0.1 kcal/mol
same,folding stability dG unfold,[2],2.01 ± 0.069 kcal/mol
same,folding stability dG unfold,[3],3.27 ± 0.043 kcal/mol
SGMLAPDATVTTTEIVFEKDPKTGLYYLTVKEKTVTVKPDSSGRLVLTTSPVTITDLGPLTPEEAEKLLSSA [r9_423_JUSTAS],folding stability dG unfold,[1],2.51 ± 0.085 kcal/mol
same,folding stability dG unfold,[2],2.16 ± 0.052 kcal/mol
same,folding stability dG unfold,[3],2.73 ± 0.031 kcal/mol
SGMLLTVATKTEESELPDGGKKKVTTTTVELSGPHSVTYTPVTTLAPDGTVPASTTTVYDTVSGETTTAPSA [r9_641_JUSTAS],folding stability dG unfold,[1],0.145 ± 0.074 kcal/mol
same,folding stability dG unfold,[2],0.259 ± 0.032 kcal/mol
same,folding stability dG unfold,[3],-0.2 ± 0.058 kcal/mol
SGMMNNTTITVTDSEPLPDGSVLTNALTFTSSSAGISSPLDLSLSKTPVSSSTTYTNNGVAPASISLNSLSA [r9_1113_JUSTAS],folding stability dG unfold,[1],0.697 ± 0.049 kcal/mol
same,folding stability dG unfold,[2],0.678 ± 0.019 kcal/mol
same,folding stability dG unfold,[3],0.611 ± 0.075 kcal/mol
SGMPTLEIEIEFPEVKGETPVPGTDRTLIDTPMKITVTKIENGPPETVEVELPPKLWTEEIEERIKKILGSA [r9_656_JUSTAS],folding stability dG unfold,[1],0.485 ± 0.47 kcal/mol
same,folding stability dG unfold,[2],-0.248 ± 0.66 kcal/mol
same,folding stability dG unfold,[3],1.2 ± 0.27 kcal/mol
SGMTSSFEVSPVGDILVVTVSLHFPGLGLSSTASATQDPSSDSMSLDLTIPFPPEDLAPLSLSLSLKPPESA [r9_887_JUSTAS],folding stability dG unfold,[1],2.87 ± 0.23 kcal/mol
same,folding stability dG unfold,[2],2.61 ± 0.12 kcal/mol
same,folding stability dG unfold,[3],3.62 ± 0.27 kcal/mol
SGPGPEKIKEIIKKLFPNLKIESIEEDPATGKYTIKFPNGYTVEVEVPPDGTVTLTVKTPNSTTTFTVPESA [r9_304_JUSTAS],folding stability dG unfold,[1],2.26 ± 0.063 kcal/mol
same,folding stability dG unfold,[2],2.15 ± 0.086 kcal/mol
same,folding stability dG unfold,[3],2.32 ± 0.031 kcal/mol
SGPTSTVDPEFPGSTPGGTVTPSVVRVPVPPDEVERVIEEIRERAGVPGLKVERVERTADGVVLIEVSLPSA [r9_1101_JUSTAS],folding stability dG unfold,[1],0.882 ± 0.066 kcal/mol
same,folding stability dG unfold,[2],0.36 ± 0.029 kcal/mol
same,folding stability dG unfold,[3],1.15 ± 0.015 kcal/mol
SGPVPLPVEVTFEPNSETTVTLPSGRTYTVPTPPNGSATATADPATGVVTITVTSGSSTTTLTFPVPAELSA [r9_226_JUSTAS],folding stability dG unfold,[1],0.592 ± 0.051 kcal/mol
same,folding stability dG unfold,[2],0.361 ± 0.006 kcal/mol
same,folding stability dG unfold,[3],0.712 ± 0.033 kcal/mol
SGQHKVTVPIEIRIYPPDPDGKWKPIGEIPIPVTYEYPKDQPEKAERQAREQVIDEIKKFAKKNGYRIYISA [r9_356_TrROS],folding stability dG unfold,[1],0.361 ± 0.2 kcal/mol
same,folding stability dG unfold,[2],0.452 ± 0.15 kcal/mol
same,folding stability dG unfold,[3],0.287 ± 0.36 kcal/mol
SGSFASVTEDSLPDGGGYIVATEVSTGASRVYPPGTVVAEPAPADSTLVETLYDPATGEPLSTTTRTVAASA [r9_209_JUSTAS],folding stability dG unfold,[1],-0.0457 ± 0.11 kcal/mol
same,folding stability dG unfold,[2],-0.712 ± 0.2 kcal/mol
same,folding stability dG unfold,[3],0.00381 ± 0.13 kcal/mol
SGSMTIKLTPDSPVEDVVKFIAENPNVNVTLLMPPEMSEELREKFEKALKEANVPKSQKVTFEVVPPGEESA [r9_670_JUSTAS],folding stability dG unfold,[1],3.55 ± 0.15 kcal/mol
same,folding stability dG unfold,[2],2.6 ± 0.14 kcal/mol
same,folding stability dG unfold,[3],3.87 ± 0.099 kcal/mol
SGSPSDDIVTTPLPGPSERATFPDGSSISRSPAGVTTTTSPTSITTTTTTPSATVTSTTTSLPPPSPSAPSA [r9_901_JUSTAS],folding stability dG unfold,[1],-0.0591 ± 0.07 kcal/mol
same,folding stability dG unfold,[2],-0.696 ± 0.034 kcal/mol
same,folding stability dG unfold,[3],0.184 ± 0.015 kcal/mol
SGSSMGPPDVKERLIDIPSSELSPEVLEEIIEEAIKEGYSVVTINIPEGKYITIELKDGKVTKITEKSLESA [r9_905_JUSTAS],folding stability dG unfold,[1],1.76 ± 0.088 kcal/mol
same,folding stability dG unfold,[2],1.84 ± 0.035 kcal/mol
same,folding stability dG unfold,[3],1.75 ± 0.047 kcal/mol
SGSTTLKTTTIPEGPLTVETTISPDGVVTGTIYDPEGKKIADYTMTYTWTTLPNGEKRLETVTVTINLGLSA [r9_434_JUSTAS],folding stability dG unfold,[1],2.35 ± 0.07 kcal/mol
same,folding stability dG unfold,[2],1.9 ± 0.05 kcal/mol
same,folding stability dG unfold,[3],2.55 ± 0.063 kcal/mol
SGSVELSFDPSKPYKVKITATAPKDGTPYEVSGTTDPATGTITLPIRRPGSGEPLPPEELEFEIEVSPPESA [r9_928_JUSTAS],folding stability dG unfold,[1],0.167 ± 0.066 kcal/mol
same,folding stability dG unfold,[2],-0.244 ± 0.071 kcal/mol
same,folding stability dG unfold,[3],0.342 ± 0.12 kcal/mol
SGYVVRIYRPNEKGEPVKIVLPDEEAEELYKELVDEEMSVEEFAERLKKLFPDAKVEVRKAEDIPPEELLSA [r9_1085_TrMRF],folding stability dG unfold,[1],2 ± 0.058 kcal/mol
same,folding stability dG unfold,[2],2.13 ± 0.07 kcal/mol
same,folding stability dG unfold,[3],1.85 ± 0.023 kcal/mol
SIFRIRMPGNREFRIFIPPDGMVNVSMPNGKKHTHPFKDKEDAKEIADVLSKHFPNMPVEIEPIPPDDIKSA [r9_1206_TrROS],folding stability dG unfold,[1],0.793 ± 0.37 kcal/mol
same,folding stability dG unfold,[2],1.26 ± 0.11 kcal/mol
same,folding stability dG unfold,[3],0.166 ± 0.91 kcal/mol
SIKIERDGDKIKITFKVPGPFRIMIFNNDEIQETTIPPGKPVKIEIDIPKGNFYIMIYFPGKPLAQIPFKSA [r9_411_TrROS],folding stability dG unfold,[1],2.19 ± 0.31 kcal/mol
same,folding stability dG unfold,[2],2.27 ± 0.19 kcal/mol
same,folding stability dG unfold,[3],1.96 ± 0.17 kcal/mol
SIKIQVHMWPDGFYVIKVRFPGNGKPIHIPFPPNETAEEQVDKIANNLWKQHGFEPVEVDIYPMPKPLPPSA [r9_1205_TrROS],folding stability dG unfold,[1],2.15 ± 0.12 kcal/mol
same,folding stability dG unfold,[2],1.81 ± 0.088 kcal/mol
same,folding stability dG unfold,[3],2.25 ± 0.034 kcal/mol
SIMIMIPPGEEIEITIEKLKDVEVMIFNNGKVREQRVPPGEEIKFELPPGAKGFMIMIKGPNGKAQMITLSA [r9_143_TrROS],folding stability dG unfold,[1],2.66 ± 0.4 kcal/mol
same,folding stability dG unfold,[2],2.74 ± 0.25 kcal/mol
same,folding stability dG unfold,[3],2.75 ± 0.081 kcal/mol
